Results published in patent US20250250355A1 (BIOSION, published 2025).
Read-outs that look alike come from different tables or passages of the source.

T1: cynomolgus SIRPα-his protein (cynomolgus)
T1 construct: also called Cyno SIRPα-his; monkey SIRPα
T1 chain: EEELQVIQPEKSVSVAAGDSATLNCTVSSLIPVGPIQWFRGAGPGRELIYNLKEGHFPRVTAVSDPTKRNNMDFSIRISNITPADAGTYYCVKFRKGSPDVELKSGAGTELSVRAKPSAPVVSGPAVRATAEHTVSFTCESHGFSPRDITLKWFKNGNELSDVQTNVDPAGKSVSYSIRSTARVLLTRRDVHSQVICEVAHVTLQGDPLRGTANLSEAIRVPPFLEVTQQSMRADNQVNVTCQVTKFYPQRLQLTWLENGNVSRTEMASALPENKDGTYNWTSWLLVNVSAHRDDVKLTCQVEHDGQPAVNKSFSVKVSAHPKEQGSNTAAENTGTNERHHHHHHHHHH

T2: mouse SIRPα-his (mouse, UniProt P97797 35-363, limits assumed)
T2 chain: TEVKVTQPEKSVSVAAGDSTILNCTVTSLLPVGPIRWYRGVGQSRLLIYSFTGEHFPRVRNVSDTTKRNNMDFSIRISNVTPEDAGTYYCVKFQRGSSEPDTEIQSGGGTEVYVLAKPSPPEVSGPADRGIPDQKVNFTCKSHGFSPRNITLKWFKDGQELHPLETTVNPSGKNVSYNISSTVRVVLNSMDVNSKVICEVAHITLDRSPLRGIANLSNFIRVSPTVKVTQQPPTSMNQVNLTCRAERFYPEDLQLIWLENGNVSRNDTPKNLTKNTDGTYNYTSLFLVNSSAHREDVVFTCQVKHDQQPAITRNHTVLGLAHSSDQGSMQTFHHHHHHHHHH


What was measured:
human SIRPα-his protein [1] = molecular target: T3, human SIRPα-his protein (human, UniProt P78324 31-370); assay: competitive ELISA on coated human SIRPα-his; blocked ligand: biotin-labeled human CD47-his, OD(450-630)
[2] = molecular target: T4, full length human SIRPβ on cell membranes (HEK293-SIRPβ cells; 293F cells expressing human SIRPβ) (human, UniProt O00241 30-398); assay: cell based binding FACS on HEK293-SIRPβ cells, MFI
T4 construct: whole, on cells; also called cell surface human SIRPβ

[3] = molecular target: T5, recombinant human SIRPα-Fc protein (human, biotin-labeled (sites not given)); assay: capture ELISA, antibody captured on anti-mouse IgG F(ab')2, biotin-labeled human SIRPα-Fc in solution, OD(450-630)
T5 construct: also called biotin-labeled human SIRPα-Fc protein

[4] = molecular target: T6, full length human SIRPγ endogenously expressed on Jurkat cells (human, UniProt Q9P1W8 29-387); assay: cell based binding FACS on Jurkat cells (endogenous human SIRPγ), MFI; curve flat near MFI 0 (see non_binding)
T6 construct: whole, on cells; also called human SIRPγ expressed on Jurkat cells

[5] = molecular target: human SIRPα-isoform 2-his protein (human); assay: indirect ELISA on coated human SIRPα-isoform 2-his, OD(450-630)
[6] = molecular target: T7, full length human SIRPα on cell membranes (HEK293-SIRPα cells; 293F-SIRPα cells) (human, UniProt P78324 31-504); assay: cell based binding FACS on HEK293-SIRPα cells, MFI
T7 construct: whole, on cells; also called cell surface human SIRPα; cell surface SIRPα

[7] = molecular target: T7, full length human SIRPα on cell …; assay: cell based blocking FACS on 293F-SIRPα cells; blocked ligand: biotin-labeled human CD47-Fc, MFI
[8] = molecular target: T1, cynomolgus SIRPα-his protein; assay: indirect ELISA on coated cynomolgus SIRPα-his, OD(450-630); curve rises only above about 3 nM, to OD about 0.9 at the last point, no plateau
[9] = molecular target: T7, full length human SIRPα on cell …; assay: cell based binding FACS on 293F cells expressing human SIRPα, MFI
[10] = molecular target: T6, full length human SIRPγ endogenously …; assay: cell based binding FACS on Jurkat cells (endogenous human SIRPγ), MFI
[11] = molecular target: T4, full length human SIRPβ on cell …; assay: cell based binding FACS on 293F cells expressing human SIRPβ, MFI
[12] = molecular target: T7, full length human SIRPα on cell …; assay: cell based blocking FACS on 293F-SIRPα cells; blocked ligand: human CD47 protein (CD47-Fc), MFI
[13] = molecular target: human SIRPα-isoform 2-his protein (human); assay: indirect ELISA on coated human SIRPα-isoform 2-his, OD(450-630); remark: listed apart in the source
[14] = molecular target: T8, human FcRn protein (Cat #FCM-H5286, Acro biosystems Inc.) (human, UniProt P55899 24-297; P61769 21-119); assay: SPR (Biacore); human FcRn covalently linked to CM5 chip, antibody flowed from 62.5 µg/ml; pH 7.4
mouse SIRPα-his = molecular target: T2, mouse SIRPα-his; assay: indirect ELISA on coated mouse SIRPα-his, OD(450-630)
[15] = molecular target: T1, cynomolgus SIRPα-his protein; assay: SPR (Biacore T200); antibody captured on Protein A chip, cynomolgus SIRPα-his flowed from 200 nM; 1:1 Langmuir fit
human SIRPα-his protein [16] = molecular target: T3, human SIRPα-his protein; assay: SPR (Biacore T200); antibody captured on Protein A chip, human SIRPα-his flowed from 200 nM; 1:1 Langmuir fit
human SIRPβ-his protein = human SIRPβ-his protein (human, UniProt O00241 30-371); assay: SPR (Biacore T200), antibody captured on Protein A chip, human SIRPβ-his flowed
[17] = molecular target: human SIRPα protein (soluble, used on 293F-CD47 cells) (human, UniProt P78324 31-370, limits assumed); assay: cell based blocking FACS on 293F-CD47 cells; soluble human SIRPα protein blocked from binding cell surface human CD47, MFI
[18] = molecular target: human SIRPα-V8-his protein (human, UniProt P78324 31-370, limits assumed); assay: indirect ELISA on coated human SIRPα-V8-his, OD(450-630)
[19] = molecular target: T1, cynomolgus SIRPα-his protein; assay: indirect ELISA on coated cynomolgus SIRPα-his, OD(450-630)
[20] = molecular target: T8, human FcRn protein (Cat #FCM-H5286, …); assay: SPR (Biacore); human FcRn covalently linked to CM5 chip, antibody flowed from 62.5 µg/ml; pH 6.0
human SIRPγ-his protein = human SIRPγ-his protein (human, UniProt Q9P1W8 29-360, limits assumed); assay: SPR (Biacore T200), antibody captured on Protein A chip, human SIRPγ-his flowed
[21] = molecular target: T8, human FcRn protein (Cat #FCM-H5286, …); assay: SPR (Biacore); human FcRn covalently linked to CM5 chip, antibody flowed from 62.5 µg/ml; pH 6.0; pH 6.0
[22] = molecular target: T1, cynomolgus SIRPα-his protein; assay: indirect ELISA on coated cynomolgus SIRPα-his, OD(450-630)
[23] = molecular target: T4, full length human SIRPβ on cell …; assay: cell based binding FACS on HEK293-SIRPβ cells, MFI; plateau at MFI about 1300

T4 sequence (O00241 30-398): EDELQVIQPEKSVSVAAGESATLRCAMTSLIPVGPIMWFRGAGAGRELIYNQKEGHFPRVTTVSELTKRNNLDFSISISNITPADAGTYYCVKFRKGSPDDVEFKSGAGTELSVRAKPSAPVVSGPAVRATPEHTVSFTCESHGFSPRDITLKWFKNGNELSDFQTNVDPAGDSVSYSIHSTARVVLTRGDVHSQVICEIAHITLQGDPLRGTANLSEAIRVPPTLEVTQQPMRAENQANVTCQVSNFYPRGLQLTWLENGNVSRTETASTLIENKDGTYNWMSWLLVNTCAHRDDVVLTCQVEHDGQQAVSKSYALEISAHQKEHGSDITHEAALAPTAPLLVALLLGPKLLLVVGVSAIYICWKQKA
Chain of human SIRPα-isoform 2-his protein (human) (chain, as listed by the source limits assumed): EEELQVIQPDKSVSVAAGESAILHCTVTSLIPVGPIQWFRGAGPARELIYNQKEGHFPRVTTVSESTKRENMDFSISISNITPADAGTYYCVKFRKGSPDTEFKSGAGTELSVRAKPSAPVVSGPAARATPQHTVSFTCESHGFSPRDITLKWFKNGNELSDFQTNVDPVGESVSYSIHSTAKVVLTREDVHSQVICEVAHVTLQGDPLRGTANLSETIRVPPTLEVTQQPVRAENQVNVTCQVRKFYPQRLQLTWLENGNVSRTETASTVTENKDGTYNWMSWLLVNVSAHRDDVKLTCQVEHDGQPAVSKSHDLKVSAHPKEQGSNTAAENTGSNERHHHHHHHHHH
T3 sequence (P78324 other isoform, or with tags, fused parts or gaps limits assumed): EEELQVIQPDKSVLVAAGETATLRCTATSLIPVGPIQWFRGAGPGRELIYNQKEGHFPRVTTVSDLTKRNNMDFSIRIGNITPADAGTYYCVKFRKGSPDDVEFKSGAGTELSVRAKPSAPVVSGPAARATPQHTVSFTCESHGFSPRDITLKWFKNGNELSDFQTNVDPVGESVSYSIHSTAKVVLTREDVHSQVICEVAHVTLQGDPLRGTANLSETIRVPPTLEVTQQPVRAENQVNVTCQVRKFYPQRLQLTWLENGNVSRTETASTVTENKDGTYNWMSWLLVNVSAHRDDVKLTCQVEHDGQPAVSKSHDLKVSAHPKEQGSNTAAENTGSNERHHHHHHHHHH
T6 sequence (Q9P1W8 29-387): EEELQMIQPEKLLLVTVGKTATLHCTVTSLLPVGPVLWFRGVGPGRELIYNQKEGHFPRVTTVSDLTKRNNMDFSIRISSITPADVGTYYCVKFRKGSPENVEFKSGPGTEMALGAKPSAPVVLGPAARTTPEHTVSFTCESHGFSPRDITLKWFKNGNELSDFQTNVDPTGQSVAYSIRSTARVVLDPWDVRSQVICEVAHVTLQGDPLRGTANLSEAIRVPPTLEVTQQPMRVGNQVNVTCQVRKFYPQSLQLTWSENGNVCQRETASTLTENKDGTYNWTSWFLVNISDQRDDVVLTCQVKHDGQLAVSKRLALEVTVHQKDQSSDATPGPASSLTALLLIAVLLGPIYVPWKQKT
T7 sequence (P78324 31-504): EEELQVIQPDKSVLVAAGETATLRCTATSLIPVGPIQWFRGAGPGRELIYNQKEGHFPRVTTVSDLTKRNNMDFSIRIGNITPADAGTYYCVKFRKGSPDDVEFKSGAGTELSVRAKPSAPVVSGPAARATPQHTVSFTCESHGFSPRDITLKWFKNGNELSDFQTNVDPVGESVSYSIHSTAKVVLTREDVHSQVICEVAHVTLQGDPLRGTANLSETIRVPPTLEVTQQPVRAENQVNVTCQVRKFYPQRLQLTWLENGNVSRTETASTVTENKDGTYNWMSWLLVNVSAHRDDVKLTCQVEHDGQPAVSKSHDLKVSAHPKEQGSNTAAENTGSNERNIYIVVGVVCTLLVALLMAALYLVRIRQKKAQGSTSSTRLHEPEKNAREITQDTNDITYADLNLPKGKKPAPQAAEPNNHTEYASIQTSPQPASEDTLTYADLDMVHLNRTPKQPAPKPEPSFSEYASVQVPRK
T5 sequence (chain, as listed by the source limits assumed): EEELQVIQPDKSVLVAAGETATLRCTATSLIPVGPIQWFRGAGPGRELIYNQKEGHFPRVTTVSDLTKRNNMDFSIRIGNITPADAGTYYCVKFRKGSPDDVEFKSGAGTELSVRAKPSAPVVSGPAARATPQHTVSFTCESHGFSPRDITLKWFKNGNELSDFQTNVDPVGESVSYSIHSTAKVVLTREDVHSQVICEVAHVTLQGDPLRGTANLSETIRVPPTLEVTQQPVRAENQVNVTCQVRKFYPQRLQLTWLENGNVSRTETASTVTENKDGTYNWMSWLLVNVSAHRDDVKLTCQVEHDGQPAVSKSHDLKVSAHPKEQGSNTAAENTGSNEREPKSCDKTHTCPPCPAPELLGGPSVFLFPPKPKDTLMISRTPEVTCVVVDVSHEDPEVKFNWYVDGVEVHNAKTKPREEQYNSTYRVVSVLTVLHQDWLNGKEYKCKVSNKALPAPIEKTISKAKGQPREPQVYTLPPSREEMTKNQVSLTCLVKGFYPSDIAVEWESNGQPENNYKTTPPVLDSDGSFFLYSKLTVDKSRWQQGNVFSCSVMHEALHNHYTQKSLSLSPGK
Chain of human SIRPα-V8-his protein (P78324 other isoform, or with tags, fused parts or gaps limits assumed): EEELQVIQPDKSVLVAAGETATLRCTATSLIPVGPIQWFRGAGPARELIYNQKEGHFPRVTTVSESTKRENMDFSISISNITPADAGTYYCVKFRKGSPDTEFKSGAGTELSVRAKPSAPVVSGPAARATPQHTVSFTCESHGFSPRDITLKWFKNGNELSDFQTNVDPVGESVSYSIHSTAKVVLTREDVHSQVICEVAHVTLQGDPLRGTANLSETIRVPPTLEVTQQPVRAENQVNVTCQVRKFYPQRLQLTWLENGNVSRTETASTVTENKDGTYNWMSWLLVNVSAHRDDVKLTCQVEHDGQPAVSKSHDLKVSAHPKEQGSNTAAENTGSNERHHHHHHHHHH
Chain of human SIRPα protein (soluble, used on 293F-CD47 cells) (P78324 31-370 limits assumed): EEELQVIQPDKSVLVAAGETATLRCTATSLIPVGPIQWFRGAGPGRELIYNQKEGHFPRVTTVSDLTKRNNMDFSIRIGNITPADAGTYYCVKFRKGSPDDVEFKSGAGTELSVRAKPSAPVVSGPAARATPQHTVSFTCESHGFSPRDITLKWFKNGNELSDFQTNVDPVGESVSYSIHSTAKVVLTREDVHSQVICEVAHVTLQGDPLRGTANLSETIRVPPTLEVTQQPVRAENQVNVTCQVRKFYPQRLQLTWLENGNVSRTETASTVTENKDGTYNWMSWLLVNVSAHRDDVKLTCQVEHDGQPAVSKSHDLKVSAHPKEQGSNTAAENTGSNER
Chain of human SIRPβ-his protein (O00241 other isoform, or with tags, fused parts or gaps limits assumed): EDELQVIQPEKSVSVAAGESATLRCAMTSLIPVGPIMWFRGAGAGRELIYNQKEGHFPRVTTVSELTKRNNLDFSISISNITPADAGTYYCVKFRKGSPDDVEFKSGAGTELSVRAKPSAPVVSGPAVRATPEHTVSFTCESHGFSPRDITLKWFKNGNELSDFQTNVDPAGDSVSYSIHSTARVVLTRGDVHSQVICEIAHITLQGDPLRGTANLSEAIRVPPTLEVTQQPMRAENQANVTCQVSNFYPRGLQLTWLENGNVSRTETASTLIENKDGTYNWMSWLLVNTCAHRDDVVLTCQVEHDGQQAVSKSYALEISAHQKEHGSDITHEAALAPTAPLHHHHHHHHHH
Chain of human SIRPγ-his protein (Q9P1W8 29-360 limits assumed): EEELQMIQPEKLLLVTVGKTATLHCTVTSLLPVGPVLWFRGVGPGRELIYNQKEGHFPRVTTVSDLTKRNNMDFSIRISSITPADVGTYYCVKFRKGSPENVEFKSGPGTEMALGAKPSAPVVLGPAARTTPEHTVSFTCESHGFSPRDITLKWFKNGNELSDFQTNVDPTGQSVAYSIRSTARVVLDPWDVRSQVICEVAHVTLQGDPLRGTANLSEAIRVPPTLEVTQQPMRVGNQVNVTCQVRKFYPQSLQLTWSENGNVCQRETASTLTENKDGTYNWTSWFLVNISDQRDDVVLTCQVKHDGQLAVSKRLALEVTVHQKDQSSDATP

IC50 (human SIRPα-his protein [1]) [pM] | EC50 [3] [pM] | EC50 [4] [pM] | EC50 [5] [pM] | EC50 [6] [pM] | IC50 [7] [pM] | EC50 [9] [pM] | binding result [10] | EC50 [11] [pM] | IC50 [12] [pM] | EC50 [13] [pM] | binding result (mouse SIRPα-his) | Kd [15] [pM] | koff [15] [s⁻¹] | kon [15] [M⁻¹ s⁻¹] | Kd (human SIRPα-his protein [16]) [pM] | koff (human SIRPα-his protein [16]) [s⁻¹] | kon (human SIRPα-his protein [16]) [M⁻¹ s⁻¹] | binding result (human SIRPβ-his protein) | IC50 [17] [pM] | Binder | further results
2130 | 49.1 | 106000 | 106 | 303 | 146 | – | – | – | – | – | – | – | – | – | – | – | – | – | – | E1F1B1C3 (antibody, V domains shown) VH: QVQLVQSGAEVKKPGASVKVSCKASGYTFTSNAMHWVRQVPGQGLEWMGWIKAGNGEIKYSQKFQGRVTITRDTSATTAYMELSSLRSEDTAVYYCARGDYYYYYMDVWGKGTTVTVSS VL: DIQVTQSPSSLSASVGDRVTITCRASQSISDFLNWYQQKPGKAPKLLIHAASSLQNGVPSRFSGSGSGTDFSLTINSLQPEDFATYYCQQSYSTPLSFGGGTKVEIK | EC50 [2]: 217 pM; EC50 [8]: 48100 pM
– | – | – | – | – | – | 956 | no binding (tested: ~67 nM) | 1470 | 2620 | 173 | no binding (tested: ~67 nM) | 553000 | 0.0146 | 26400 | 14600 | 0.00188 | 129000 | no binding | 368 | E1H10B7-CDRV1-IgG1 (YTE) (antibody) heavy: QVQLVQSGAEVKKPGASVKVSCKASGYTFTSYAMQWVRQAPGQRLEWMGWIIAGNADTKYSQNFQDRVTLTRDTSANTAYMDLSGLRSEDTAVYYCARGSGFSGYGYFDKWGQGTLVTVSSASTKGPSVFPLAPSSKSTSGGTAALGCLVKDYFPEPVTVSWNSGALTSGVHTFPAVLQSSGLYSLSSVVTVPSSSLGTQTYICNVNHKPSNTKVDKKVEPKSCDKTHTCPPCPAPEAQGGPSVFLFPPKPKDTLYITREPEVTCVVVDVSHEDPEVKFNWYVDGVEVHNAKTKPREEQYNSTYRVVSVLTVLHQDWLNGKEYKCQVSNKALPAPIEKTISKAKGQPREPQVYTLPPSRDELTKNQVSLTCLVKGFYPSDIAVEWESNGQPENNYKTTPPVLDSDGSFFLYSKLTVDKSRWQQGNVFSCSVMHEALHNHYTQKSLSLSPG light: DIQMTQSPSSLSASVGDRVTITCRASHSISSYLNWYQQKPGKVPKLLIYASSSLQSGVPSRFSGSGSGTDFTLIISSLQPEDFATYYCQQSHSIPLTFGGGTKVEIKRTVAAPSVFIFPPSDEQLKSGTASVVCLLNNFYPREAKVQWKVDNALQSGNSQESVTEQDSKDSTYSLSSTLTLSKADYEKHKVYACEVTHQGLSSPVTKSFNRGEC | Kd [14]: 129000 pM; EC50 [18]: 141 pM; EC50 [19]: 209 pM; Kd [20]: 28800 pM; binding result (human SIRPγ-his protein): no binding (tested: antigen starting at 200 nM)
– | – | – | – | – | – | 973 | no binding (tested: ~67 nM) | 1230 | 2300 | 184 | no binding (tested: ~67 nM) | 376000 | 0.0132 | 35000 | 8780 | 0.00118 | 134000 | no binding | 347 | E1H10B7-CDRV1-IgG1 (antibody) heavy: not shown light: DIQMTQSPSSLSASVGDRVTITCRASHSISSYLNWYQQKPGKVPKLLIYASSSLQSGVPSRFSGSGSGTDFTLIISSLQPEDFATYYCQQSHSIPLTFGGGTKVEIKRTVAAPSVFIFPPSDEQLKSGTASVVCLLNNFYPREAKVQWKVDNALQSGNSQESVTEQDSKDSTYSLSSTLTLSKADYEKHKVYACEVTHQGLSSPVTKSFNRGEC | Kd [21]: 94100 pM; EC50 [18]: 151 pM; EC50 [19]: 224 pM; binding result (human SIRPγ-his protein): no binding (tested: antigen starting at 200 nM)
2180 | 71.5 | 630 | 119 | 927 | 706 | – | – | – | – | – | – | – | – | – | – | – | – | – | – | E1D5E1F1 (antibody, V domains shown, Purified from a hybridoma of AceMouse mice: human heavy and light chain variable regions with mouse constant regions) VH: QVQLVQSGAEVKKPGASVKVSCKASGYTFTSFAMQWVRRAPGQRLEWMGWIIAGNGDTKYSQNFQDRVTLTRDTSANTAYMDLSGLRSEDTAVYYCARGSGFSGYGYFDKWGQGTLVTVSS VL: DIQMTQSPSSLSASVGDRVTITCRASHSISSYLNWYQQKPGKVPKLLIYASSSLQSGVPSRFSGNGSGTDFTLIISSLQPEDFATYYCQQSHSIPLTFGGGTKVEIK | EC50 [22]: 94 pM; EC50 [23]: 738 pM
